Values quoted from earlier work as cited in publication PMC2787657.
pKd: −log10 of the molar value. Like-named read-outs stand apart in the source and are kept apart here.

Legend:
[1] = target: CI-MPR cytoplasmic domain (Homo sapiens) (UniProt P11717)
[2] = target: CI-MPR cytoplasmic domain (Homo sapiens) (UniProt P11717); remark: listed apart in the source

Sequence of UniProt P11717 (P11717 2328-2491): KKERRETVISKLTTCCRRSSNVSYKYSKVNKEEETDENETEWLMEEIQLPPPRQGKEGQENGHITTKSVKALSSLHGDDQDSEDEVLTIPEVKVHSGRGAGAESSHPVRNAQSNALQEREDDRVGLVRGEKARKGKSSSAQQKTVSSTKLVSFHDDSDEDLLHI

## TIP47 (from UniProt O60664)
[1]
  pKd: 6.52
[2]
  pKd: 6.05
